From patent US20190000969A1 (AbbVie / Abbott, published 2019)
Positions count from the first letter of the chain named.

B1: SC115.26 (antibody, V domains shown)
VH: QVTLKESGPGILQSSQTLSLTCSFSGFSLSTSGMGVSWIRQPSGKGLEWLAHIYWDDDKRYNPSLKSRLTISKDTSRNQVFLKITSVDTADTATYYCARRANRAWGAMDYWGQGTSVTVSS
VL: DIVMSQSPSSLAVSVGEKVTMSCKSSQSLLYSSNQKNFLAWYQQKPGQSPKLLIYWASTRESGVPDRFTGSGSGTDFTLTISSVKAEDLAIYYCQQYYYYPYTFGGGTKLEIK
B2: SC115.84 (antibody, IgG2b, V domains shown)
VH: QVQLQQSGAELVKPGASVKISCETSGYTFSSYWMNWVKQRPGKGLEWIGQIDPGDGDTNYNGKFRGKATLTADKSSSTAYMQLNTLTSEDSAVYFCARSRQLRLDYWGQGTTLTVSS
VL: QIVLTQSPAIMSASPGERVTMTCSASSSVSSFYLYWYQQKSGSSPKVWIYSTSNLASGVPTRFSGSGSGTSYSLTINSMEAEDAATYYCQQWSSNPLTFGAGTKLELK
B3: SC115.65 (antibody, IgG2a, V domains shown)
VH: EVQLQQSGPELVKPGASVKISCKASGYSFTGYFMNWVMQSHGKSLEWIGRINPYNGDTFYNQKFKGKATLTVDKSSNTAHMELRSLASEDSGVYYCAGHNNYGVSWGQGTTLTVSS
VL: DVLMTQTPLSLPVSLGDQASISCRSSQIIVHSNGNTYLEWYLQKPGQSPKLLIYKVSNRFSGVPDRFSGSGSGTDFTLKISRVEAEDLGVYYCFQGSHLPYTFGGGTKLEIK
B4: SC115.18 (antibody, V domains shown)
VH: QVQLQQPGAELVRPGSSVKLSCKASGYTFTSYWMHWVKQRPMQGLEWIGNIDPSDSEIYYNQKFKDKATLTVDKSSGTAYMQLSSLTSEDSAVYYCARRSGSRDYYGMDDWGQGTSVTVSS
VL: DIVMTQSPSSLTVTAGEKVTMRCKSSQSLLNSGNQKNYLTWYQQKPGQPPKLLISWASTRDSGVPDRFTGSGSRTDFILTISSVQAEDLAVYYCQNDYSYPLTFGAGTKLELK
B5: SC115.9 (antibody, IgG2a, V domains shown)
VH: QVQLQQPGAELVKPGASVKMSCKASGYTFTSNWMHWVKQRPGQGLEWIGVIDPSDTYISYNQKFKGKATLTVDTSSSTAYMQLSSLTSEDSAVYYCTRRDSGWYFDVWGAGTTVTVSS
VL: B4 VL with R22S, S55Y, D61E, R74G, I78T
B6: SC115.32 (antibody, IgG1, V domains shown)
VH: QVQLQQPGAELVRPGSSVKLSCKASGYTFNSYWMHWVKQRPIKGLEWIGNIDPSDGETYYNQAFKDKATLTVDKSSSTAYMQLSRLTSEDSAVYYCARRGTAQATTWLGYWGQGTLVTVSA
VL: B4 VL with R22S, S55Y, D61E, R74G, I78T, L102F, A106S, L112I
B7: chimSC115.9 (Fab, V domains shown)
VH: B5 VH
VL: B4 VL with R22S, S55Y, D61E, R74G, I78T
notes: also called Fab fragment (papain-digested) of chimeric SC115.9; parental chimeric antibody
B8: SC115.46 (antibody, V domains shown)
VH: QVQLQQSGPQLVRPGASVKISCKASGYSFTTSWMHWMKQRPGQGLEWIGMIDPSDSETGLNQIFRDKATLTVDKYSSTAYMQLSSPTSEDSAVYYCARRGRFSYDYGGFAYWGQGTLVTVSA
VL: B4 VL with R22S, P49T, S55Y, D61E, R74G, I78T, Y100N, L102F, A106G, L112I
B9: chimSC115.18 (Fab, V domains shown)
VH: B4 VH
VL: B4 VL
notes: also called Fab fragment (papain-digested) of chimeric SC115.18; parental chimeric antibody
B10: SC115.7 (antibody, V domains shown)
VH: EVQLQQSGAELVRPGASVKLSCTASGFNIKDSFIHWVKKRPEEGLEWIGWIDPEDGETKYAPKFQDKATITADTSSNTAYLQLSSLTSEDTAIYYCARRERFYGIYYALDYWGQGTSVTVSS
VL: B4 VL with R22S, P46L, S55Y, D61E, R74G, I78T, Y100N, L102F, A106S, L112I
B11: SC115.36 (antibody, IgG1, V domains shown)
VH: EVQLQQSGTVVARPGASVKMSCKASGYSFTSYWMHWIKQRPGQGLDWIGSIYPGHSDATYNQRFKGKAKLTAVTSANTAYMELSSLTNEDSAVYYCSRSDGYYRGMAMDYWGQGTSVTVSS
VL: DIVLTQSPASLAVSLGQRATISCRASESVDGYGNSFMHWYRQKPGQPPKLLIYRASNLESGIPARFSGSGSRTDFALTINPVEADDVATYYCQQSYGDPRTFGGGTNLEIK
B12: SC115.1 (antibody, IgG1, V domains shown)
VH: QVLLQQSGPQLVRPGASVKISCKASGYSFTSYWIHWVKQRPGQGLEWIGMIDPSDSETSFNQKFKDKATLTVDKSSSTAYMQLSSPTSEDSAVYYCARSYYASRFDYWGQGATLTVSS
VL: DIVMTQSPSSLAMSVGQKVTMNCKSSQSLLNSNNQKNYLAWYQQKPGQSPKLLVYFASTRESGVPDRFIGSGSGTDFTLTITSVQAEDLADYFCLQHYGTPLTFGAGTKLELK
B13: SC115.4 (antibody, IgG2a, V domains shown)
VH: DVKLVESGGGLVKLGGSLKLSCAASGFTFSSYPMSWVRQTPEMRLEWVATISSGGGITYYPDSVKGRFTISRDNAKNTLSLQMNSLRSEDTAMYYCSRLYYSDYEGYMDYWGQGTSVTVSS
VL: DIVLTQSPASLAVSLGQRATISCRASKSVSTSGYSYMHWYQQKPGQPPKLLIYLASNLESGVPARFSGSGSGTDFTLNIHPVEEEDASTYYCQHSRELPLTFGAGTKLELK
B14: SC115.90 (antibody, IgG2a, V domains shown)
VH: DVKLVESGGGFVRLGGSLKLSCAASGFTFNNYAMSWVRQTPEKRLEWVAIISRGGTKNYYPDSVKGRFTISRDNAKNTLYLQMSSLRSEDTAMYYCARLYYDDYEGYMDYWGQGTSVTVSS
VL: B13 VL with S88A, K107R
B15: SC115.51 (antibody, V domains shown)
VH: QVQLKQSGPGLVQPSQSLSITCTVSGFSLTNYGIHWVRQSPGKGLEWLGVIWRGGSTDYNAGFMSRLTITKDNSKSQVFFKMNSLQGDDTAIYYCAKNTGRGALDYWGQGTTLTVSS
VL: DIVMTQSPSSLAVTAGEKVTMRCKSSQSLLWSVNQNNYLSWYQQKQGQPPKLLISGASIRESWVPDRFTGSGSGTDFTLTISNVHAEDLAVYYCQHNHGSFLPYTFGGGTKLEIK
B16: SC115.19 (antibody, IgG2a, V domains shown)
VH: QITLKESGPGILQPSQTLSLTCSFSGFSLSTSGMGVGWIRQPSGKGLEWLANIWWNDDQYYNPPLKSRLTVSKDTSKTQVFLKIAHVDTADTATYYCARIYSGNYGAMDYWGQGTSVTVSS
VL: DIVMTQAAFSNPVTLGTSASISCRSSKSLLHSNGITYLYWYLQKPGQSPQLLIYQMSSLASGVPDRFSSSGSGTDFTLRISRVEAEDVGVYYCAQSLELPYTFGGGTKLEIK
B17: SC115.48 (antibody, V domains shown)
VH: EVQLVETGGGLVQPKGSLKLSCAASGLSFNTYAMNWVRQAPGKGLEWVARIRSKSNNYATYYADSVKDRFTISRDDSQSMLYLQMNNLKTEDTAMYYCVTSLFDYWGQGTTLTVSS
VL: QLVVTQSSSASFSLGASAKLTCTLSSQHSTYTIEWYQQQPLKPPKYVMELKKDGSHSTGDGIPDRFSGSSSGADRYLSISNMQPEDEAIYICGVGEAIKEQFVYVFGGGTKVTVL
B18: SC115.94 (antibody, IgG2a, V domains shown)
VH: QVQLQLSGAELVKPGASVKISCKASGYAFSSYWMNWVKQRPGKGLEWIGQIYPGDADTHYNGKFKGKATLTADKSSSTAYMQLSSLTSEDSAVYFCARLKLGRFDYWGQGTTLTVSS
VL: B17 VL with V4L, S57N, M82I, E96Y, A97T
B19: SC115.13 (antibody, IgG1, V domains shown)
VH: QILLVQSGPELKKPGETVKISCKASGYTFTNYGMNWVKQAPGKGLKWMGWINTKTGVPTYPDDFKGRFAFSLETSASTAYLQISNLKDEDTATYFCTRGESFFSFAFWGQGTLVAVSA
VL: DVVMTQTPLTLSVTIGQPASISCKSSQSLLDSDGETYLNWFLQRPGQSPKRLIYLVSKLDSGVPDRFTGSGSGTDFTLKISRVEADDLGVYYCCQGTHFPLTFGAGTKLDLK
B20: SC115.52 (antibody, IgG1, V domains shown)
VH: B19 VH with Y32L, K54Y, V57D, P61V, D88N, S101K, F103Y, F107Y, A115T
VL: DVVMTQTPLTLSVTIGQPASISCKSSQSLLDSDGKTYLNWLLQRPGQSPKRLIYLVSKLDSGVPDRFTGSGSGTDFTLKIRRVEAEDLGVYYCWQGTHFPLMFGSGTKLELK

Columns and labels:
[1] = target: T1, human UPK1B (hUPK1B) protein, full length, on the cell surface (human, UniProt O75841 1-260); assay: cell-based or functional assay
T1 sequence: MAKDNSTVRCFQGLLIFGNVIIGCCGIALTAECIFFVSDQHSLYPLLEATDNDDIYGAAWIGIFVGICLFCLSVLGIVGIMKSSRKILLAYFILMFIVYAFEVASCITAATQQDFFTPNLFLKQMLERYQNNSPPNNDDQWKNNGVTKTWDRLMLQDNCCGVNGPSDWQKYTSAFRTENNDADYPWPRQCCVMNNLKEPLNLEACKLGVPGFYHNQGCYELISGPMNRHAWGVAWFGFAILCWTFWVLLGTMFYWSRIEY

[2] = target: T1, human UPK1B (hUPK1B) protein, full …; assay: cell-based or functional assay; remark: listed apart in the source
[3] = target: T2, hUPK1B(108-229)-Fc, second extracellular domain of human UPK1B fused to human IgG2 Fc (human, UniProt O75841 108-229); assay: SPR, Biacore T200; human UPK1B Fc-fusion captured on anti-human chip, papain-digested Fab as analyte, 1:1 Langmuir fit
T2 construct: Expressed behind an IgK signal peptide, which is not part of the secreted protein; also called hUPK1B-Fc; Fc-fusion human UPK1B protein; not shown: human IgG2 Fc protein
T2 sequence: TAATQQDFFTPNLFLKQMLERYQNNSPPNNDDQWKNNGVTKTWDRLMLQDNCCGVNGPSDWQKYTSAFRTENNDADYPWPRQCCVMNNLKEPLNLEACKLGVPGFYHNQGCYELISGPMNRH

Row | Binder | IVK, HxUPK1B, 250pM, fz, % live [cont.] [1] [% live] | IVK, HxUPK1B, 250pM, fz, % live [2] [% live] | other results
1 | B1 | 105 |  | 
2 | B2 | 25.6 |  | 
3 | B3 |  | 98.3 | 
4 | B4 |  | 22.9 | 
5 | B5 |  | 17.6 | 
6 | B6 | 28.2 |  | 
7 | B7 |  |  | Kd [3]: 6.4 nM
8 | B8 | 19.3 |  | 
9 | B9 |  |  | Kd [3]: 3.6 nM
10 | B10 |  | 48.7 | 
11 | B11 | 17.2 |  | 
12 | B12 |  | 23.1 | 
13 | B13 |  | 89 | 
14 | B14 | 104 |  | 
15 | B15 |  | 100 | 
16 | B16 |  | 20.4 | 
17 | B17 |  | 22.2 | 
18 | B18 | 55.7 |  | 
19 | B19 |  | 99.4 | 
20 | B20 |  | 103 | 
